Reference: publication PMC7255509, “Crystal structure of the catalytic C‐lobe of the HECT‐type ubiquitin ligase E6AP” (Protein Science : A Publication of the Protein Society, 2020)

Target: the molecule itself
Experiment: crystal structure; crystallised at >=30 mg/ml (crystal used: 60 mg/ml), 20°C, sitting drops, 0.1 M calcium chloride, 0.1 M sodium acetate pH 4.6, 30% PEG400; 1.3 Å; dimer of two symmetry-related molecules

B1: C-lobe of the catalytic (HECT) domain of E6AP (domain or fragment, UniProt Q05086-2 741-852, looked up)
chain: NLDFQALEETTEYDGGYTRDSVLIREFWEIVHSFTDEQKRLFLQFTTGTDRAPVGGLGKLKMIIAKNGPDTERLPTSHTCFNVLLLPEYSSKEKLKERLLKAITYAKGFGML
notes: E6AP (UBE3A), HECT-type ubiquitin ligase, C-lobe of the catalytic domain, residues 741-852; catalytic Cys820; numbers count on: isoform 1 (ends at residue 852); Cleavage by 3C protease may leave a few residues of the vector at the N-terminus; In the crystal the two Cys820 are read as partly joined by an intermolecular disulfide; also called E6AP C-lobe; C-terminal lobe of E6AP; source: E. coli …
Which “stoichiometry N” value does the source give for B1 here?
Its value is 2.
